Starred links: 1 amine or outer side, 2 acyl side, 3 side chain; linkers in the order of their positions; H or OH if unused. Non-standard residues stand in square brackets, D forms with d. Primed or numbered codes have the meaning given here. *: point of attachment. AC4Abu = α-carboxy-4-aminobutyric acid, O=C(C(CCN[*:1])C(=O)[*:3])[*:2]; Oic = O=C(O)[C@@H]1C[C@@H]2CCCC[C@@H]2N1; Phe(4-Cl) = N[C@@H](Cc1ccc(Cl)cc1)C(=O)O; γGlu = O=C(O)[C@H](CCC(=O)[*:2])N[*:1]; NMeR = CN[C@@H](CCCNC(=N)N)C(=O)O; Tridecanoyl = CCCCCCCCCCCCC(=O)*; Cha = N[C@@H](CC1CCCCC1)C(=O)O; Tle = CC(C)(C)[C@H](N)C(=O)O; αMeP = C[C@@]1(C(=O)O)CCCN1; β3hP = O=C(O)C[C@@H]1CCCN1; Nle = CCCC[C@H](N)C(=O)O; Pip′ = not defined here; Deg = CCC(N)(CC)C(=O)O; AEEA = NCCOCCOCC(=O)O; Aib = CC(C)(N)C(=O)O
T1: human APJ receptor (human, UniProt P35414 1-380)
T1 sequence (looked up): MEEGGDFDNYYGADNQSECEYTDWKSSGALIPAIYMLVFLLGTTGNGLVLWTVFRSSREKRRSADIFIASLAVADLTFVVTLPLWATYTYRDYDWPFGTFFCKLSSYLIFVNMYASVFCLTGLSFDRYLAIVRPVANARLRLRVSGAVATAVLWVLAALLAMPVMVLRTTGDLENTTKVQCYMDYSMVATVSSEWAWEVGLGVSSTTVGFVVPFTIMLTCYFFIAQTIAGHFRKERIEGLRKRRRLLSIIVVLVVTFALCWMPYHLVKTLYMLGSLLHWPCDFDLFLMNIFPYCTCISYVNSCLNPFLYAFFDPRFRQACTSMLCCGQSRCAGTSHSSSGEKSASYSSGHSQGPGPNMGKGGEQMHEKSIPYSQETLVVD

T2: rat APJ receptor (rat, UniProt Q9JHG3 1-377)
T2 sequence (looked up): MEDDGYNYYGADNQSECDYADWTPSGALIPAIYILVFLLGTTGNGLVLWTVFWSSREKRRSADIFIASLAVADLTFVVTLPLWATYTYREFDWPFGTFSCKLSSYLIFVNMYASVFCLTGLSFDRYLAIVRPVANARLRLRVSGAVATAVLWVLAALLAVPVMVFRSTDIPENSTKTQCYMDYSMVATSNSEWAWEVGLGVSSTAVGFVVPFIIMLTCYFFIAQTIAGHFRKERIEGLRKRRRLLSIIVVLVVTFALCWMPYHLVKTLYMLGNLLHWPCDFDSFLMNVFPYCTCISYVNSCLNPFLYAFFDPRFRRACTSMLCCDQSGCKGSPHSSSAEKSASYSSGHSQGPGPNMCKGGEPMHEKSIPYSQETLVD


Key:
human APJ receptor = biological target: T1, human APJ receptor; experiment: cell-based or functional assay
rat APJ receptor = biological target: T2, rat APJ receptor; experiment: cell-based or functional assay

Binder | EC50 Human APJ Receptor (GTPγS assay) (human APJ receptor) [nM] | EC50 Rat APJ Receptor (GTPγS assay) (rat APJ receptor) [nM]
Tridecanoyl-[γGlu][AEEA][AEEA][dQ]RP[NMeR][Cha]SHKG[Oic][Nle][Deg][Phe(4-Cl)]-OH (SMILES CCCCCCCCCCCCC(=O)N[C@@H](CCC(=O)NCCOCCOCC(=O)NCCOCCOCC(=O)N[C@H](CCC(N)=O)C(=O)N[C@@H](CCCNC(=N)N)C(=O)N1CCC[C@H]1C(=O)N(C)[C@@H](CCCNC(=N)N)C(=O)N[C@@H](CC1CCCCC1)C(=O)N[C@@H](CO)C(=O)N[C@@H](Cc1c[nH]cn1)C(=O)N[C@@H](CCCCN)C(=O)NCC(=O)N1[C@H](C(=O)N[C@@H](CCCC)C(=O)NC(CC)(CC)C(=O)N[C@@H](Cc2ccc(Cl)cc2)C(=O)O)C[C@@H]2CCCC[C@@H]21)C(=O)O) [Apelin polypeptide SEQ ID NO: 549] | 1.2 | 4
Tridecanoyl-[γGlu][AEEA][AEEA][dQ]RP[NMeR][Cha]SYKG[Oic][Nle][Aib][Phe(4-Cl)]-OH (SMILES CCCCCCCCCCCCC(=O)N[C@@H](CCC(=O)NCCOCCOCC(=O)NCCOCCOCC(=O)N[C@H](CCC(N)=O)C(=O)N[C@@H](CCCNC(=N)N)C(=O)N1CCC[C@H]1C(=O)N(C)[C@@H](CCCNC(=N)N)C(=O)N[C@@H](CC1CCCCC1)C(=O)N[C@@H](CO)C(=O)N[C@@H](Cc1ccc(O)cc1)C(=O)N[C@@H](CCCCN)C(=O)NCC(=O)N1[C@H](C(=O)N[C@@H](CCCC)C(=O)NC(C)(C)C(=O)N[C@@H](Cc2ccc(Cl)cc2)C(=O)O)C[C@@H]2CCCC[C@@H]21)C(=O)O) [Apelin polypeptide SEQ ID NO: 531] | 0.852 | 5.66
Tridecanoyl-[γGlu][AEEA][AEEA]QRP[NMeR][Cha]SHKGP[Nle]P[Phe(4-Cl)]-OH (SMILES CCCCCCCCCCCCC(=O)N[C@@H](CCC(=O)NCCOCCOCC(=O)NCCOCCOCC(=O)N[C@@H](CCC(N)=O)C(=O)N[C@@H](CCCNC(=N)N)C(=O)N1CCC[C@H]1C(=O)N(C)[C@@H](CCCNC(=N)N)C(=O)N[C@@H](CC1CCCCC1)C(=O)N[C@@H](CO)C(=O)N[C@@H](Cc1c[nH]cn1)C(=O)N[C@@H](CCCCN)C(=O)NCC(=O)N1CCC[C@H]1C(=O)N[C@@H](CCCC)C(=O)N1CCC[C@H]1C(=O)N[C@@H](Cc1ccc(Cl)cc1)C(=O)O)C(=O)O) [Apelin polypeptide SEQ ID NO: 361] | 0.308 | 0.086
Tridecanoyl-[γGlu][AEEA][AEEA]QRP[NMeR][Cha]SYKG[Oic][Nle]P[Phe(4-Cl)]-OH (SMILES CCCCCCCCCCCCC(=O)N[C@@H](CCC(=O)NCCOCCOCC(=O)NCCOCCOCC(=O)N[C@@H](CCC(N)=O)C(=O)N[C@@H](CCCNC(=N)N)C(=O)N1CCC[C@H]1C(=O)N(C)[C@@H](CCCNC(=N)N)C(=O)N[C@@H](CC1CCCCC1)C(=O)N[C@@H](CO)C(=O)N[C@@H](Cc1ccc(O)cc1)C(=O)N[C@@H](CCCCN)C(=O)NCC(=O)N1[C@H](C(=O)N[C@@H](CCCC)C(=O)N2CCC[C@H]2C(=O)N[C@@H](Cc2ccc(Cl)cc2)C(=O)O)C[C@@H]2CCCC[C@@H]21)C(=O)O) [Apelin polypeptide SEQ ID NO: 436] | 0.793 | 1.47
Tridecanoyl-[γGlu][AEEA][AEEA]QRP[NMeR][Cha]SHKG[Oic][Nle][β3hP][Phe(4-Cl)]-OH (SMILES CCCCCCCCCCCCC(=O)N[C@@H](CCC(=O)NCCOCCOCC(=O)NCCOCCOCC(=O)N[C@@H](CCC(N)=O)C(=O)N[C@@H](CCCNC(=N)N)C(=O)N1CCC[C@H]1C(=O)N(C)[C@@H](CCCNC(=N)N)C(=O)N[C@@H](CC1CCCCC1)C(=O)N[C@@H](CO)C(=O)N[C@@H](Cc1c[nH]cn1)C(=O)N[C@@H](CCCCN)C(=O)NCC(=O)N1[C@H](C(=O)N[C@@H](CCCC)C(=O)N2CCC[C@H]2CC(=O)N[C@@H](Cc2ccc(Cl)cc2)C(=O)O)C[C@@H]2CCCC[C@@H]21)C(=O)O) [Apelin polypeptide SEQ ID NO: 487] | 1.83 | 8.19
Tridecanoyl-[γGlu][AEEA][AEEA][dQ]RP[NMeR][Cha]SHKG[Oic][Nle][αMeP][Phe(4-Cl)]-OH (SMILES CCCCCCCCCCCCC(=O)N[C@@H](CCC(=O)NCCOCCOCC(=O)NCCOCCOCC(=O)N[C@H](CCC(N)=O)C(=O)N[C@@H](CCCNC(=N)N)C(=O)N1CCC[C@H]1C(=O)N(C)[C@@H](CCCNC(=N)N)C(=O)N[C@@H](CC1CCCCC1)C(=O)N[C@@H](CO)C(=O)N[C@@H](Cc1c[nH]cn1)C(=O)N[C@@H](CCCCN)C(=O)NCC(=O)N1[C@H](C(=O)N[C@@H](CCCC)C(=O)N2CCC[C@@]2(C)C(=O)N[C@@H](Cc2ccc(Cl)cc2)C(=O)O)C[C@@H]2CCCC[C@@H]21)C(=O)O) [Apelin polypeptide SEQ ID NO: 541] | 0.938 | 1.98
Tridecanoyl-[γGlu][AEEA][AEEA][dQ]RP[NMeR][Cha]SHKG[Pip′][Nle][Aib][Phe(4-Cl)]-OH [Apelin polypeptide SEQ ID NO: 499] | 0.0236 | 0.0852
Tridecanoyl-[γGlu][AEEA][AEEA][dQ]RP[NMeR][Cha]SHKG[Pip′][Nle][β3hP][Phe(4-Cl)]-OH [Apelin polypeptide SEQ ID NO: 544] | 2.42 | 5.61

Other lines, results leading:

EC50 Human APJ Receptor (GTPγS assay) (human APJ receptor) [nM] | EC50 Rat APJ Receptor (GTPγS assay) (rat APJ receptor) [nM] | Binder
1.53 | 1.54 | Tridecanoyl-[AC4Abu][AEEA][AEEA]QRP[NMeR][Cha]SHKG[Oic][Tle]P[Phe(4-Cl)]-OH (SMILES CCCCCCCCCCCCC(=O)NCCC(C(=O)O)C(=O)NCCOCCOCC(=O)NCCOCCOCC(=O)N[C@@H](CCC(N)=O)C(=O)N[C@@H](CCCNC(=N)N)C(=O)N1CCC[C@H]1C(=O)N(C)[C@@H](CCCNC(=N)N)C(=O)N[C@@H](CC1CCCCC1)C(=O)N[C@@H](CO)C(=O)N[C@@H](Cc1c[nH]cn1)C(=O)N[C@@H](CCCCN)C(=O)NCC(=O)N1[C@H](C(=O)N[C@H](C(=O)N2CCC[C@H]2C(=O)N[C@@H](Cc2ccc(Cl)cc2)C(=O)O)C(C)(C)C)C[C@@H]2CCCC[C@@H]21) [Apelin polypeptide SEQ ID NO: 413]
4.29 | 4.71 | Tridecanoyl-[γGlu][AEEA][AEEA]QRP[NMeR][Cha]SHKG[Oic][Nle][Pip′][Phe(4-Cl)]-OH [Apelin polypeptide SEQ ID NO: 445]
2.15 | 3.21 | Tridecanoyl-[γGlu][AEEA][AEEA]QRP[NMeR][Tle]SHKG[Oic][Nle]P[Phe(4-Cl)]-OH (SMILES CCCCCCCCCCCCC(=O)N[C@@H](CCC(=O)NCCOCCOCC(=O)NCCOCCOCC(=O)N[C@@H](CCC(N)=O)C(=O)N[C@@H](CCCNC(=N)N)C(=O)N1CCC[C@H]1C(=O)N(C)[C@@H](CCCNC(=N)N)C(=O)N[C@H](C(=O)N[C@@H](CO)C(=O)N[C@@H](Cc1c[nH]cn1)C(=O)N[C@@H](CCCCN)C(=O)NCC(=O)N1[C@H](C(=O)N[C@@H](CCCC)C(=O)N2CCC[C@H]2C(=O)N[C@@H](Cc2ccc(Cl)cc2)C(=O)O)C[C@@H]2CCCC[C@@H]21)C(C)(C)C)C(=O)O) [Apelin polypeptide SEQ ID NO: 439]
0.663 | 0.725 | Tridecanoyl-[γGlu][AEEA][AEEA]QRP[NMeR][Cha]SVKG[Oic][Nle]P[Phe(4-Cl)]-OH (SMILES CCCCCCCCCCCCC(=O)N[C@@H](CCC(=O)NCCOCCOCC(=O)NCCOCCOCC(=O)N[C@@H](CCC(N)=O)C(=O)N[C@@H](CCCNC(=N)N)C(=O)N1CCC[C@H]1C(=O)N(C)[C@@H](CCCNC(=N)N)C(=O)N[C@@H](CC1CCCCC1)C(=O)N[C@@H](CO)C(=O)N[C@H](C(=O)N[C@@H](CCCCN)C(=O)NCC(=O)N1[C@H](C(=O)N[C@@H](CCCC)C(=O)N2CCC[C@H]2C(=O)N[C@@H](Cc2ccc(Cl)cc2)C(=O)O)C[C@@H]2CCCC[C@@H]21)C(C)C)C(=O)O) [Apelin polypeptide SEQ ID NO: 437]
5.19 | 16.1 | Tridecanoyl-[γGlu][AEEA][AEEA][dQ]RP[NMeR][Cha]SHKG[Oic][Nle][β3hP][Phe(4-Cl)]-OH (SMILES CCCCCCCCCCCCC(=O)N[C@@H](CCC(=O)NCCOCCOCC(=O)NCCOCCOCC(=O)N[C@H](CCC(N)=O)C(=O)N[C@@H](CCCNC(=N)N)C(=O)N1CCC[C@H]1C(=O)N(C)[C@@H](CCCNC(=N)N)C(=O)N[C@@H](CC1CCCCC1)C(=O)N[C@@H](CO)C(=O)N[C@@H](Cc1c[nH]cn1)C(=O)N[C@@H](CCCCN)C(=O)NCC(=O)N1[C@H](C(=O)N[C@@H](CCCC)C(=O)N2CCC[C@H]2CC(=O)N[C@@H](Cc2ccc(Cl)cc2)C(=O)O)C[C@@H]2CCCC[C@@H]21)C(=O)O) [Apelin polypeptide SEQ ID NO: 542]
